Legend:
[1] = molecular target: T1, human KDR (VEGFR2) on cells (human, UniProt P35968 20-1356); assay: cell-based or functional assay
[2] = molecular target: T1, human KDR (VEGFR2) on cells; assay: cell-based or functional assay; remark: listed apart in the source
[3] = molecular target: T1, human KDR (VEGFR2) on cells; assay: cell-based or functional assay; remark: listed apart in the source
[4] = molecular target: T1, human KDR (VEGFR2) on cells; assay: FACS on HUVEC, hybridoma supernatant 1:50
Outline: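 HUVECs incubated 1 h at 4° C with hybridoma supernatant at 1:50, then Cy5 goat anti-human antibody (5 μg/mL) plus 7AAD (5 μg/mL) for 15 min at 4° C. Cell-surface binding read by FACS; goat anti-KDR antibody as positive control, irrelevant hybridoma supernatants as negative controls.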

[5] = molecular target: T2, mouse KDR (Flk-1)/Fc (Cat. #443-KD/CF, R&D Systems) (mouse, UniProt P35918 20-762); assay: ELISA, plate-coated Flk-1/Fc 500 ng/mL, hybridoma supernatant 1:5
T2 construct: Bought reagent; also called mouse VEGFR2; KDR mouse ortholog; Fc part of the bought chimera not given
Description: The cross-reactivity of antibodies in the hybridoma supernatant was tested against KDR mouse ortholog (mouse VEGFR2, or Flk-1) and human VEGFR1 (Flt-1). Cross-reactivity was measured using an ELISA based assay.
After washing and blocking the plates, the antibody-containing supernatants were added (at 1:5 dilution) into the coated wells and incubated for one hour at room temperature. The plates were then incubated with mouse anti-human IgG 2, 3 and 4 and subsequently with goat anti-mouse IgG Fc POD, to detect and measure bound antibodies.

[6] = molecular target: T3, soluble KDR (VEGF Receptor 2 D1-7, Cat. #676490, Calbiochem) (human, UniProt P35968 20-764); assay: ELISA, plate-coated soluble KDR 250 ng/mL, hybridoma supernatant 1:5
T3 construct: extracellular domain; Bought reagent; also called soluble human KDR; immobilized soluble KDR
Description: To screen by binding to immobilized soluble KDR, plates were coated with KDR (Calbiochem) at 250 ng/mL overnight at 4° C. After blocking and washing the coated plates, the candidate hybridoma supernatants (at 1:5 dilution) were transferred to the plates and incubated for one hour at room temperature. The plates were then washed and incubated with secondary antibody (at 1:4000 dilution) for one hour at room temperature.

b-KDRIg4-7-myc-his = molecular target: T4, b-KDRIg4-7-myc-his (UniProt P35968 328-764, prefix 'b-' not explained; captured on neutravidin-coated plates (presumably biotinylated, site not stated)); assay: ELISA, b-KDRIg4-7-myc-his 1 ug/mL on neutravidin, hybridoma supernatant 1:5
T4 construct: domain: Ig4-7; The text calls it 'a KDR antibody containing the Ig4-7 domain'; it is read as the KDR fragment; Purified on a nickel column; also called Ig4-7 domain of KDR; soluble KDR Ig4-7; not shown: myc-his tag of the pSecTag vector
Description: To screen by binding to the Ig4-7 domain of KDR, plates were first coated with neutravadin (Pierce) at 4 μg/mL and incubated overnight at 4° C. The plates were then blocked and subsequently incubated with b-KDRIg4-7-myc-his at 1 μg/mL for one hour at room temperature. Candidate hybridoma supernatants (at 1:5 dilution) were transferred to the plates and incubated for one hour at room temperature. The plates were then washed and incubated with goat anti-human IgG Fc POD (at 1:4000 dilution) for one hour at room temperature.

T1 sequence (P35968 20-1356): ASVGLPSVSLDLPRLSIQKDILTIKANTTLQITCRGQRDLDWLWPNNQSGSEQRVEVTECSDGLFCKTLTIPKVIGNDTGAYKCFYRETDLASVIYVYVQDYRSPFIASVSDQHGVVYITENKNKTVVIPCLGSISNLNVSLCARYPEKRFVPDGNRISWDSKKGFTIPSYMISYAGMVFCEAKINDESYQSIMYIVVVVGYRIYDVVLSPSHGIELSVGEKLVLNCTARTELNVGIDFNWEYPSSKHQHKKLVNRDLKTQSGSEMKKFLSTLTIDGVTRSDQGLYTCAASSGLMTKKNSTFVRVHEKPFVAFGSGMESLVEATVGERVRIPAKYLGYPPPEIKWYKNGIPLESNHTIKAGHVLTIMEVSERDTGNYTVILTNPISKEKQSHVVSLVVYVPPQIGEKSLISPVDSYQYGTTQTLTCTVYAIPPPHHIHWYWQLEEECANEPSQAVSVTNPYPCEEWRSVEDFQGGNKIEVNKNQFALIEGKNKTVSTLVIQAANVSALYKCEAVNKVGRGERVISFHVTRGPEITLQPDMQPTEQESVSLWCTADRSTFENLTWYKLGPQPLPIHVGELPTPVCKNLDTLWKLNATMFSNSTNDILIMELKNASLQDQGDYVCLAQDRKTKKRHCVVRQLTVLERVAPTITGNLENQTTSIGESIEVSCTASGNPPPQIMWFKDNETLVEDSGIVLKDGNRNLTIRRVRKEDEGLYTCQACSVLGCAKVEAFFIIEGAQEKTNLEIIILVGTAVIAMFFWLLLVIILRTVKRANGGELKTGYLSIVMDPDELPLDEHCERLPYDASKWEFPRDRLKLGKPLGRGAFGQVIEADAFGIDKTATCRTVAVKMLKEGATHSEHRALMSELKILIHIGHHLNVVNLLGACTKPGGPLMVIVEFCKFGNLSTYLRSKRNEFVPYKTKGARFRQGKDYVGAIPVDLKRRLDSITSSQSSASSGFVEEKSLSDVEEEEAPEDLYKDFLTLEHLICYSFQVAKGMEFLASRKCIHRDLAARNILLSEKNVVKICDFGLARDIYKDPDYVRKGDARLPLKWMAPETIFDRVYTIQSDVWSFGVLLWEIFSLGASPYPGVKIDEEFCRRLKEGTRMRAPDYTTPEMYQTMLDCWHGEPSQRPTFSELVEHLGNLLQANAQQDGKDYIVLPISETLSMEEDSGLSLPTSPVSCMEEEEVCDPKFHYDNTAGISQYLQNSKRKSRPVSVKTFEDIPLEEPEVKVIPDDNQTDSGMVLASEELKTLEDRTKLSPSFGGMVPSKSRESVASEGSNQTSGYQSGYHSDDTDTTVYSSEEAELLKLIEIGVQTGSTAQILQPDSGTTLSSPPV
T3 sequence (P35968 20-764): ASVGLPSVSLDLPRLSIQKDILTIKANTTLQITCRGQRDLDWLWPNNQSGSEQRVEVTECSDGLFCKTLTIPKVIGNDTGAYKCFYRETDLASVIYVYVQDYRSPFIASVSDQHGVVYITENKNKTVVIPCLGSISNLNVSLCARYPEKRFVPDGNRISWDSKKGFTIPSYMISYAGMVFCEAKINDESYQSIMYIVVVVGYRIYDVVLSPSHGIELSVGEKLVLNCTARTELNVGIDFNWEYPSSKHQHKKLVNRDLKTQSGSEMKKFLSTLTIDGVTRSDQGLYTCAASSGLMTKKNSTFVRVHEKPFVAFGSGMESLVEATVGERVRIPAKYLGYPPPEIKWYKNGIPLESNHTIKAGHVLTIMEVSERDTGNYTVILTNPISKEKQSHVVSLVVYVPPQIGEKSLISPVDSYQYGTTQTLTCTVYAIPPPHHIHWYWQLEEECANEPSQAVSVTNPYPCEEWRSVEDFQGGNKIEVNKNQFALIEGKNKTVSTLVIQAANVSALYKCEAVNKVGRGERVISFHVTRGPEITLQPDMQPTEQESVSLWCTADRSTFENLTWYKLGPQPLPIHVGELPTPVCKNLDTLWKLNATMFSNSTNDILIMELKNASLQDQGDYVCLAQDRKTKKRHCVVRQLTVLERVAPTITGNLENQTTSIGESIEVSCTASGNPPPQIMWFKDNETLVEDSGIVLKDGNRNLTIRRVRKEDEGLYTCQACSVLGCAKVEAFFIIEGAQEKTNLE
T4 sequence (P35968 328-764): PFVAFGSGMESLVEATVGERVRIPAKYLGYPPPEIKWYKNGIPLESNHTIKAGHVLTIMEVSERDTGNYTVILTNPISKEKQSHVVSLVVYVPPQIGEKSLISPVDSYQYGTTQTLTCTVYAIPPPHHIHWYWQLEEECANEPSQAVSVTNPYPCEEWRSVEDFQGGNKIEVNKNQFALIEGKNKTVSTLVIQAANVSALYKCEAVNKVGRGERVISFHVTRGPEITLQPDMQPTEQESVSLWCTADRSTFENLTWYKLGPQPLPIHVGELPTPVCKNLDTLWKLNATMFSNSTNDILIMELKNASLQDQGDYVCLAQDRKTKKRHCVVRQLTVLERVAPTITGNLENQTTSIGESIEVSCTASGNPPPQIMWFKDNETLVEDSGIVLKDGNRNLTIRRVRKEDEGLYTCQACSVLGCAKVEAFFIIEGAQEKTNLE
T2 sequence (P35918 20-762): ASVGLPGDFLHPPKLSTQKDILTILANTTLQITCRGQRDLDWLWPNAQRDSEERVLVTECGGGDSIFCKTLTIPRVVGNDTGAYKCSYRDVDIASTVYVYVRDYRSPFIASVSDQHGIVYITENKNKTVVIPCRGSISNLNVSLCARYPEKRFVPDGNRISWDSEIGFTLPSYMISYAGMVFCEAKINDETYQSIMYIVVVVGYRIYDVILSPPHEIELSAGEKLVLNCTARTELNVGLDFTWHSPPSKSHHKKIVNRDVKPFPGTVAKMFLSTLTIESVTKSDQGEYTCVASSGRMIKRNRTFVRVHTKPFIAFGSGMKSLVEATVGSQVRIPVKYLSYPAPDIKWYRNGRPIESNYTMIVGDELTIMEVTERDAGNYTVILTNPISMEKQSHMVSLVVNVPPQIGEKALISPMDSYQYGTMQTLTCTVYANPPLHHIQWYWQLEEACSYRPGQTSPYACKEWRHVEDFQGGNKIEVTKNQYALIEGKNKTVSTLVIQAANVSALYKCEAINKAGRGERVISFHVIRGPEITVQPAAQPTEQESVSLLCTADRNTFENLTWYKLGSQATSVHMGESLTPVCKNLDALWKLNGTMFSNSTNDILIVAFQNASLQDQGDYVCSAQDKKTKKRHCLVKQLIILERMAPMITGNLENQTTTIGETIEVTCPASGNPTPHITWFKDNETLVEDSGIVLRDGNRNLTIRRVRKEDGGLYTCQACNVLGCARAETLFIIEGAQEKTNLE

Binder | % Inhibition of VEGF165-mediated pTyr Activity, Average [1] | % Inhibition of VEGF165-mediated pTyr Activity, n = 1 [1] | % Inhibition of VEGF165-mediated pTyr Activity, n = 2 [1] | % Inhibition of VEGF165-mediated pTyr Activity, n = 3 [1] | % Inhibition of VEGF-E-mediated pTyr Activity [2] | HUVEC survival (n = 1) 1:10 dilution of supernatant (RLU) [3] | HUVEC survival (n = 2) 1:20 dilution of supernatant (RLU) [3] | FACS Geometric Mean [4] | OD (450 nm) [5] | KDR OD(450 nm) [6] | b-KDRIg4-7 OD(450 nm) (b-KDRIg4-7-myc-his)
anti-KDR monoclonal antibody 29H3 (antibody, V domains shown, Fully human mAb from XenoMouse (IgG2 or IgG4 strain); hybridoma supernatant) VH: QVQLVQSGAEVKKPGASVKVSCKASGYTFTSYDINWVRQATGQGLEWMGWMNPNSGKTGYAQKFQGRVTMTRNTSINTAYMELSSLRSEDTAVYYCARGGYSNLGWFDPWGQGTLVTVSS VL: DIQMTQSPSSVSASVGDRVTITCRASQGISSWLVWYHQKPGKAPKLLIYGASSLQSGVPSRFSGSGSGTDFTLTISSLQPEDFATYYCQQANNFPFTFGPGTKVDIK | 76% | 89% | 72% | 66% | 18% | 32700 RLU | 544 RLU | 27 | 0.096 OD450 | 0.83 OD450 | 0.071 OD450
anti-KDR monoclonal antibody 31E11 (antibody, V domains shown, Fully human mAb from XenoMouse (IgG2 or IgG4 strain); hybridoma supernatant) VH: QVQLVESGGGLVKPGGSLRLSCAASGFTFSDYYMSWIRQAPGKGLEWVSYISISGSTIYYADSVKGRFTISRDNAKNSLYLQMNSLRAEDTAVYYCARDDFWSGYYFNWFDPWGQGTLVTVSS VL: DIQMTQSPSSLSASVGDRVTITCRANQTISTFLNWYQQNPGKAPKLLIYAASSLQSGVPSRFSGSGSGTDFTLTISSLQPEDFATYYCQQTYIIPLTFGGGTKVEIK | 74% | 81% | 80% | 59% | 67% | 9140 RLU | 6980 RLU | 18 | 0.162 OD450 | 1.14 OD450 | 1.28 OD450
anti-KDR monoclonal antibody 22B8 (antibody, V domains shown, Fully human mAb from XenoMouse (IgG2 or IgG4 strain); hybridoma supernatant) VH: QLQLQESGPGLVKPSETLSLTCTVSGGSISSRYYYWGWVRQPPGKGLEWIGTIYYSGHTYYNPSLKTRVTISVDTSKNQFSLKLISVTAADTAVYYCATQQLVLYYFDFWGQGTLVTVSS VL: EIVLTQSPGTLSLSPGERAALSCRASQSISSSYLAWYQQRPGQAPRLLIYGASSRATGIPDRFNGSGSGTDFTLTISRLEPEDFAVYYCQQFGSSITFGQGTRLEIK | 67% | 82% | 65% | 53% | 61% | 12900 RLU | 3260 RLU | 24 | 0.074 OD450 | 1.18 OD450 | 2.81 OD450
anti-KDR monoclonal antibody 27D10 (antibody, V domains shown, Fully human mAb from XenoMouse (IgG2 or IgG4 strain); hybridoma supernatant) VH: QLQLQESGPGLVKPSETLSLTCTVSGGSISSRSDYWGWIRQPPGKGLEWIGTIYYSGSTFYNPSLKSRVTISVDTSKNQFSLKLSSVTAADTAVYYCARQQLVLYYFDYWGQGTLVTVSS VL: not shown | 58% | 62% | 48% | 63% | 63% | 20100 RLU | 9710 RLU | 24 | 0.166 OD450 | 3.24 OD450 | 2.03 OD450
anti-KDR monoclonal antibody 29D4 (antibody, V domains shown, Fully human mAb from XenoMouse (IgG2 or IgG4 strain); hybridoma supernatant) VH: QLQLQESGPGLVKPSETLSLTCTVSGGSISSRSNYWGWIRQPPGKGLEWIGTIYYSGHTYYNPSLKSRVSISVDTSKNQFSLKLSSVTATDTALYYCARQQLVLYYFEYWGQGTLVTVSS VL: not shown | 72% | 85% | 67% | 63% | 67% | 12900 RLU | 5380 RLU | 26 | 0.1 OD450 | 1 OD450 | 2.61 OD450
anti-KDR monoclonal antibody 30A1 (antibody, V domains shown, Fully human mAb from XenoMouse (IgG2 or IgG4 strain); hybridoma supernatant) VH: QLQLQESGPGLVKPSETLSLTCTVSGGSISSPNYYWGWIRQPPGKGLEWIGTIYYSGNTFYNPSLKSRVTISVDTSKNQFSLKLSSVTAADTAVYYCATQQLVLYYFDFWGQGTLVTVSS VL: EIVLTQSPGTLSLSPGKRAALSCRASQSISSSYLAWYQQKPGQAPRLLIYGASSRATGIPDRFNGSGSGTDFTLTISRLEPEDFAVYYCQQLGSSITFGQGTRLEIK | 65% | 86% | 59% | 52% | 50% | 14400 RLU | 9730 RLU | 25 | 0.107 OD450 | 0.786 OD450 | 1.21 OD450
anti-KDR monoclonal antibody 32F4 (antibody, V domains shown, Fully human mAb from XenoMouse (IgG2 or IgG4 strain); hybridoma supernatant) VH: QLQLQESGPGLVKPSGTLSLSCTVSGGSISSRSDYWGWIRQPPGKGLEWIGTIYYSGNTFYNPSLKSRVTISVDTSKKQFSLKLSSVTAADTAVYYCARQQLVLYYFDYWGQGTLVTVSS VL: EIVLTQSPGTLSLSPGERATLSCRTSQSVSSSYLAWYQQKPGQAPRLLIYGASSRATGVPDRFSGSGSGTDFSLTISRLEPEDFAVYYCQQYGSSPPLTFGGGTKVEIK | 73% | 88% | 76% | 56% | 62% | 20100 RLU | 5030 RLU | 27 | 0.094 OD450 | 0.907 OD450 | 2.29 OD450

— patent publication US20100260765A1 (AstraZeneca / MedImmune, published 2010)
